From the supplement of paper PMC7877785
± gives the uncertainty stated by the source.

Test: self-splicing fitness, log relative to wild type (ln ratio); higher = more splicing; Tetrahymena group I intron in knt gene, E. coli kanamycin selection, DiMSum; sequences stand for … in CUCUCU…GGAGGGAAAAGUUAUCAGGCAUGCACCUGGUAGCUAGUCUUUAAACCAAUAGAUUGCAUCGGUUUAAAAGGCAAGACCGUCAAAUUGCGGGAAAGGGGUCAACAGCCGUUCAGUACCAAGUCUCAGGGGAAACUUUGAGAUGGCCUUGCAAAGGGUAUGGUAAUAAGCUGACGGACAUGGUCCUAACCACGCAGCCAAGUCCUAAGUCAACAGAUCUUCUGUUGAUAUGGAUGCAGUUCACAGACUAAAUGUCGGUCGGGGAAGAUGUAUUCUUCUCAUAAGAUAUAGUCGGACCUCUCCUUAAUGGGAGCUAGCGGAUGAAGUGAUGCAACACUGGAGCCGCUGGGAACUAAUUUGUAUGCGAAAGUAUAUUGAUUAGUUUUGGAGUACUCGUGGUCG
In short: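 Six replicate transformations of E. coli BL21(DE3) with a pET-22b(+) library were grown overnight at 37°C or 30°C. The library randomised all eight P1ex-region intron nucleotides, the intron lying in the knt kanamycin-resistance gene, and plates were LB agar with or without 25 μg/mL kanamycin plus 100 μg/mL carbenicillin, 50 μM IPTG and 0.2% rhamnose. Pooled colonies were amplicon-sequenced on an Illumina HiSeq 2500, and fitness is the DiMSum error-weighted combination of wild-type-normalised replicate fold changes, kanamycin versus none.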

Sequence | self-splicing fitness (ln) (30 °C) | self-splicing fitness (ln) (37 °C)
CCGCAGCAAUAUUACGCUCG | -1.9 ± 0.07 | -1.41 ± 0.094
CCGCAGCAAUAUUACGGAAA | -3.75 ± 0.3 | -3.29 ± 0.43
CCGCAGCAAUAUUACGGCAC | -2.89 ± 0.21 | -2.91 ± 0.25
CCGCAGCAAUAUUACGGGAU | -4.16 ± 0.33 | -1.82 ± 0.16
CCGCAGCAAUAUUACGGGGG | -3.71 ± 0.18 | -3.2 ± 0.3
CCGCAGCAAUAUUACGGGUA | -4.25 ± 0.42 | -2.44 ± 0.22
CCGCAGCAAUAUUACGGUAG | -2.16 ± 0.086 | -1.11 ± 0.093
CCGCAGCAAUAUUACGGUUU | -3.45 ± 0.14 | -2.86 ± 0.16
CCGCAGCAAUAUUACGUAGA | -3.07 ± 0.17 | -1.37 ± 0.12
CCGCAGCAAUAUUACGUCCC |  | -2.65 ± 0.49
CCGCAGCAAUAUUACGUUCC | -3.27 ± 0.41 | -1.54 ± 0.43
CCGCAGCAAUAUUACGUUGU | -3.23 ± 0.16 | -3.8 ± 0.26
CCGCAGCAAUAUUACGUUUU | -3.13 ± 0.13 | -3.26 ± 0.2
CCGGAGCAAUAUUACGAAGC |  | -2.8 ± 0.36
CCGGAGCAAUAUUACGACUG | -0.64 ± 0.14 | -0.428 ± 0.22
CCGGAGCAAUAUUACGAGUA | -3.34 ± 0.27 | -2 ± 0.26
CCGGAGCAAUAUUACGAUCG | -0.502 ± 0.12 | 0.299 ± 0.16
CCGGAGCAAUAUUACGCAAA |  | -2.55 ± 0.33
CCGGAGCAAUAUUACGCCGG |  | -3.09 ± 0.28
CCGGAGCAAUAUUACGCCUA | -2.12 ± 0.26 | -2.59 ± 0.29
CCGGAGCAAUAUUACGCGAA | -3.59 ± 0.42 | -2.41 ± 0.36
CCGGAGCAAUAUUACGCGGC | -3.5 ± 0.31 | -2.33 ± 0.26
CCGGAGCAAUAUUACGCUGC |  | -2.04 ± 0.38
CCGGAGCAAUAUUACGCUUC | -2.55 ± 0.24 | -0.412 ± 0.19
CCGGAGCAAUAUUACGGAAU | -2.95 ± 0.26 | -2.96 ± 0.25
CCGGAGCAAUAUUACGGACU |  | -1.56 ± 0.28

Sequence | self-splicing fitness (ln) (30 °C) | self-splicing fitness (ln) (37 °C)
CCGGAGCAAUAUUACGGAUG | -2.78 ± 0.22 | -1.92 ± 0.23
CCGGAGCAAUAUUACGGCGU | -4.4 ± 0.46 | -2.84 ± 0.26
CCGGAGCAAUAUUACGGCUA |  | -0.58 ± 0.2
CCGGAGCAAUAUUACGGCUC |  | -2.08 ± 0.37
CCGGAGCAAUAUUACGGGUG | -1.61 ± 0.093 | -1.09 ± 0.1
CCGGAGCAAUAUUACGGUGA | -3.8 ± 0.31 | -2.29 ± 0.23
CCGGAGCAAUAUUACGUACC |  | -0.504 ± 0.41
CCGGAGCAAUAUUACGUAUC |  | -2.58 ± 0.29
CCGGAGCAAUAUUACGUAUU |  | -1.05 ± 0.21
CCGGAGCAAUAUUACGUCAU | -4 ± 0.24 | -2.48 ± 0.21
CCGGAGCAAUAUUACGUCUA |  | -1.85 ± 0.33
CCGGAGCAAUAUUACGUGUA | -2.99 ± 0.2 | -2.61 ± 0.25
CCGUAGCAAUAUUACGAACU | -3.64 ± 0.47 | -1.14 ± 0.28
CCGUAGCAAUAUUACGACGC |  | -3.08 ± 0.38
CCGUAGCAAUAUUACGACGU | -0.571 ± 0.075 | -0.205 ± 0.088
CCGUAGCAAUAUUACGAUCA | -2.86 ± 0.32 | -2.34 ± 0.35
CCGUAGCAAUAUUACGAUGC | -4.08 ± 0.36 | -1.39 ± 0.23
CCGUAGCAAUAUUACGCACG | -2.02 ± 0.096 | -1.53 ± 0.13
CCGUAGCAAUAUUACGCCAC | -1.95 ± 0.22 | -1.78 ± 0.33
CCGUAGCAAUAUUACGCGUU | -4.15 ± 0.39 | -2.86 ± 0.31
CCGUAGCAAUAUUACGGAAG | -1.47 ± 0.17 | -2.34 ± 0.41
CCGUAGCAAUAUUACGGAAU | -3.73 ± 0.3 | -1.92 ± 0.32
CCGUAGCAAUAUUACGGACU | -4.02 ± 0.22 | -2.54 ± 0.2
CCGUAGCAAUAUUACGGAGG | -3.6 ± 0.17 | -3.34 ± 0.25
CCGUAGCAAUAUUACGUAUG | -0.772 ± 0.082 | 0.203 ± 0.12
CCGUAGCAAUAUUACGUCCA | -2.27 ± 0.28 | -3.26 ± 0.28
